In patent US20260234247A1 (published 2026):
Changes are numbered by the printed parent chain.

B1: LK-RB1-12 (antibody, human IgG4 S228P, kappa, V domains shown)
VH: QVQLQQSGTELVRPGSSVMISCKASGYAFSTYWMDWVKQRPGQGLEWIGQIYPGDGATNYNGKFKGKATLTADKSSITAYMHLSSLTSEDSAVYFCLRSRDYDGWFFDVWGAGTTVTVSS
VL: DIVMTQSHKFMSTSIGDRVSITCKASQDVSSAVAWYQQKPGQSPKLLIYWASTRHTGVPDRFTGSGSGTDYTLTFSSVQAEDLALYYCQQHYSTPWTFGGGTKLEIKR
B2: LK-RB1-33 (antibody, human IgG4 S228P, kappa, V domains shown)
VH: QIQLVQSGPELKKPGDTVKISCKASGYTFTSYGMNWVKQAPGEGLKWMGWINTYSGVPTYGDDFKGRFAFSLETSASTAYLQINNLENEDTATYFCARRGRDSVVGHFDVWGTGTTVTVSS
VL: B1 VL with I15V, S30N, S31T, Y71F, F75I, S93T, T94I, W96F, G100S, K103R
B3: LK-RB1-16 (antibody, human IgG4 S228P, kappa, V domains shown)
VH: QVQLKESGPGLVAPSQSLSITCTVSGFSLISNAISWVRQPPGKGLEWLGVIWGDGNTIYHSALRSRLTISKDNSKSQVFLKLNSLQIDDTATYYCAKANWDGYYFDYWGQGTTLTVSS
VL: DIQMNQSPSSLSASLGDTITITCHASQSVDFWLNWYQQKPGNIPKLLISKASNLHTGVPSRFSGSGSGTTFTLTISSLQPEDIATYYCQQGQSYPLTFGSGTKLEIKR
B4: LK-RB1-31 (antibody, human IgG4 S228P, kappa, V domains shown)
VH: QVQLKESGPGLVAPSQSLSITCTVSGFSLTSYGVSWVRQPPGKGLEWLGIIWGDGSTNYHSALKSRLSISKDNSKSQVFLKLNSLQTEDTATYYCAKPNWDYYAMDYWGQGTSVTVSS
VL: DIQMTQTTSSLSASLGDRVTISCRASQDISNYLNWYLQKPDGTVKLLIYYTSRLHSGVPSRFSGSGSGTDYSLTISNLEQEDIATYFCQQGITLPCTFGGGTKLEIKR
B5: LK-RB1-47 (antibody, human IgG4 S228P, kappa, V domains shown)
VH: QIQLVQSGPELKKPGETVKISCKASGYTFTTYGMSWVKQAPGKGLKWMGWINTYSGVPTYTDDFKGRFAFSVETSASTAYLQINNLKNEDTATYFCARRERDFYGNIFFPYWGQGSLVTVSA
VL: B4 VL with L37Q, L54I, Y71F, E79D, I92H, C96W, L104V
B6: LK-RB2-15 (antibody, human IgG4 S228P, kappa, V domains shown)
VH: QIQLVQSGPELKKPGETVKISCKASGYTFTTYGMSWVKQAPGKGLKWMGWINVYSGVPTYADDFKGRFAFSLEISASTAYLQINNLKDEDTATYFCARRKDYSGHCFDYWGQGTTLTVSS
VL: DIVLTQSPASLAVSLGQRATFSCRASESVDTYGISFMHWYQQKPGQPPKLLIYRASNLESGIPARFSGSGSRTDFTLTINPVETDDVATYYCQQSKKEPYTFGGGTKLEIKR
notes: Anti-LILRB2 antibody from mouse hybridoma
B7: LK-RB2-14 (antibody, human IgG4 S228P, kappa, V domains shown)
VH: QVQLKQSGPGLVQPSQSLSITCTVSGFSLTSYGVHWVRQSPGKGLEWLGVIWRGGSTDYNAAFMSRLSITKDNSKSQVFFKMNSLQADDTAIYYCAKNEGDSTVVAWYFDVWGTGTTVTVSS
VL: DIQMTQTTSSLSASLGDRVTISCSASQGISNYLNWFQQKPDGTVKLLIYYTSSLHSGVPSRFSGSGSGTDYSLTISNLEPEDIATYYCQQYSKLPLTFGAGTKLELKR
notes: as for B6
B8: LK-RB2-3 (antibody, human IgG4 S228P, kappa, V domains shown)
VH: QLQLQQSDAELVKPGASVKISCKVSGYSFTDHTIHWMKQRPEQGLEWIGYIYPRDGSTKENEKFTGKATLTADKSSSTAYMQLTSLTSEDSAVYFCTGSGFDYWGQGTSLTVSS
VL: DIKMTQSPSSMYASLGERVTITCKASQDIKSYLSWFQQKPGKSPKTLIYRANRLVDGVPSRFSGSGSGQDYSLTINSLEYEDMEIYYCLQYDEFPYTFGGGTKLEIKR
notes: as for B6
B9: hz73D1.v1 (antibody, human IgG4 S228P, kappa, V domains shown)
VH: QVQLVQSGAEVKKPGASVKVSCKASGYTFTDYYINWVRQAPGQGLEWMGNVNPNDGGTTYNQKFKGRVTMTTDTSTSTAYMELRSLRSDDTAVYYCARREIYFYGTIYYYAMDYWGQGTLVTVSS
VL: DIQLTQSPSFLSASVGDRVTITCRASESVDYYGNSFMYWYQQKPGKAPKLLIYFASNLESGVPSRFSGSGSGTEFTLTISSLQPEDFATYYCQQNNEDPWTFGGGTKVEIKR
B10: LK-RB1-58 (antibody, human IgG4 S228P, kappa, V domains shown)
VH: QVQLKQSGPGLVQPSQSLSITCTVSGFSLTTYGVHWVRQSPGKGLEWLGVIWRGGSTDYNAAFMSRLSITKDNSKSQVFFRMNSLQADDTARYYCAKNSLYYGSSWYFDVWGTGTTVTVSS
VL: QIVLSQSPAILSASPGEKVTMTCRASSSVSFMHWYQQKPGSSPKPWIYATSNLASGVPARFSGSGSGTSYSLTISRVEAEDAATYYCQQWSSNPPTFGGGTKLEIKR
notes: Anti-LILRB1 antibody
B11: LK-RB1-54 (antibody, human IgG4 S228P, kappa, V domains shown)
VH: DVQLQESGPGLVKPSQSLSLTCSVTGYSITSGFYWNWIRQFPGNKLEWMGHISYDGTNNYNPSLKNRISITRDTSKNLFFLKLNSVTTEDTATFHCARGGYGGSYGFDYWGQGTTLTVSS
VL: ENVLTQSPAIMSASLGEKVTMSCRASSSVNYMYWYQQKSDASPKLWIYYTSNLAPGVPVRFSGSGSGNSYSLTISSMEGEDAATYYCQQFTSSPWTFGGGTKLEIKR
notes: Anti-LILRB1 antibody
B12: hz73D1.v1 (antibody, human IgG4 S228P, kappa, V domains shown)
VH: B9 VH
VL: B9 VL

What follows are binders tested against T1, Biotinylated LILRB1 (UniProt Q8NHL6 24-458, limits assumed, biotinylated (sites not given)) (assay: epitope binning ELISA, coated 1 ug/ml; competitor LK-RB1-31 at 20 ug/ml).
T1 sequence (Q8NHL6 24-458 limits assumed): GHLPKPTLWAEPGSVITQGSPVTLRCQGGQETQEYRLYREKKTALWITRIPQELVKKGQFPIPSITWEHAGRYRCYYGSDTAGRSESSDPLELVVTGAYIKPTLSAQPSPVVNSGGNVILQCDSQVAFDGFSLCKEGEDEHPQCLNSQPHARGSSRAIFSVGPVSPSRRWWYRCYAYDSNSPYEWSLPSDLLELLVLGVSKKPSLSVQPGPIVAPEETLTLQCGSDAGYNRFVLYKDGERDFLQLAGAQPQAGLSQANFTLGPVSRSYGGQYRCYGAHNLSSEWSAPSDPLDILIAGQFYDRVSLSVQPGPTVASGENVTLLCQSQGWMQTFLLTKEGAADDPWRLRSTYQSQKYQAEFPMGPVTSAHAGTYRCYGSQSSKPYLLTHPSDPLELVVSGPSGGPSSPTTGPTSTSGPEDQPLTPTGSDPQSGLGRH

Inhibition % [%] | Binder
83 | B1
4.35 | B2
3.39 | B3
64.4 | B4
0.59 | B5

The binders below were run against T1, Biotinylated LILRB1 (assay: epitope binning ELISA, coated 1 ug/ml; competitor LK-RB1-33 at 20 ug/ml).
Method: (§1) Binding epitope of a subset of anti-LILRB1 and anti-LILRB2 antibodies was analyzed by epitope binning ELISA. Briefly, a panel of testing antibodies were coated onto ELISA plate. 50 ul/well Biotinylated LILRB1 or LILRB2 and 50 ul/well of competing antibodies were added to the coated plate and incubated at 37° C. for 1 hour. After Streptavidin-HRP (1:5000) incubation and TMB development, the plates were read at 450 nm using Molecular device spectra max plus384.

Inhibition % [%] | Binder
75.3 | B1
96 | B2
-0.04 | B3
1.14 | B4
21.7 | B5

Each binder was assayed against T2, Biotinylated LILRB2 (UniProt Q8N423 22-460, limits assumed, biotinylated (sites not given)) (assay: epitope binning ELISA; coated antibody 1 ug/ml, biotinylated LILRB2; competitor LK-RB2-14 at 20 ug/ml).
T2 construct: also called biotinylated-LILRB2 protein
T2 sequence (Q8N423 22-460 limits assumed): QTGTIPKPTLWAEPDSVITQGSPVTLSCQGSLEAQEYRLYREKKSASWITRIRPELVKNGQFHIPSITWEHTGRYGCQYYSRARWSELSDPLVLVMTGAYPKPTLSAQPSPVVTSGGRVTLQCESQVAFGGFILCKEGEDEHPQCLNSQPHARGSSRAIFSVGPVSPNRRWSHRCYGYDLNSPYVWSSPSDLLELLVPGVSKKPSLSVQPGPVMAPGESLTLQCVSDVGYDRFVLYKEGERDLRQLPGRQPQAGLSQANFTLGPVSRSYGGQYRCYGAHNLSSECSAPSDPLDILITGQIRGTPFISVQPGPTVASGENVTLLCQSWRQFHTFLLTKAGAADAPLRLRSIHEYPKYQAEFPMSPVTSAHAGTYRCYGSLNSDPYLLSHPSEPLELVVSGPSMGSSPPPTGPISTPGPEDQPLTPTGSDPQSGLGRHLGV

Inhibition % [%] | Binder
85.4 | B6
90.6 | B7
24.9 | B8
91.8 | B9

What follows are binders tested against T2, Biotinylated LILRB2 (assay: epitope binning ELISA; coated antibody 1 ug/ml, biotinylated LILRB2; competitor LK-RB2-15 at 20 ug/ml).
Method: as §1

Inhibition % [%] | Binder
94.3 | B6
91.1 | B7
5 | B8
6.43 | B9

The binders below were run against T2, Biotinylated LILRB2 (assay: epitope binning ELISA; coated antibody 1 ug/ml, biotinylated LILRB2; competitor hz73D1.v1 at 20 ug/ml).
Method: as §1

Inhibition % [%] | Binder
15.1 | B6
92.7 | B7
33.7 | B8
96.8 | B9

These binders were tested against T2, Biotinylated LILRB2 (assay: epitope binning ELISA; coated antibody 1 ug/ml, biotinylated LILRB2; competitor LK-RB2-2 at 20 ug/ml).
Method: as §1

Inhibition % [%] | Binder
47.1 | B6
97.7 | B7
96.9 | B8
97.8 | B9

The binders below were run against T1, Biotinylated LILRB1 (assay: epitope binning ELISA, coated 1 ug/ml; competitor LK-RB1-9 at 20 ug/ml).
Method: as §1

Inhibition % [%] | Binder
84.5 | B1
94.8 | B2
0.98 | B3
10.5 | B4
31.8 | B5

These binders were tested against T1, Biotinylated LILRB1 (assay: epitope binning ELISA, coated 1 ug/ml; competitor LK-RB1-47 at 20 ug/ml).
Method: as §1

Inhibition % [%] | Binder
83.2 | B1
96.5 | B2
2.23 | B3
5.86 | B4
89.8 | B5

What follows are binders tested against T2, Biotinylated LILRB2 (assay: epitope binning ELISA; coated antibody 1 ug/ml, biotinylated LILRB2; competitor LK-RB2-3 at 20 ug/ml).
Method: as §1

Inhibition % [%] | Binder
22.1 | B6
29.8 | B7
96.7 | B8
65.3 | B9

The binders below were run against T2, Biotinylated LILRB2 (assay: epitope binning ELISA; coated antibody 1 ug/ml, biotinylated LILRB2; competitor J19.h1 at 20 ug/ml).
Method: as §1

Inhibition % [%] | Binder
8 | B6
77.4 | B7
9.71 | B8
74.8 | B9

Each binder was assayed against T1, Biotinylated LILRB1 (assay: epitope binning ELISA, coated 1 ug/ml; competitor hz73D1.v1 at 20 ug/ml).
Method: as §1

Inhibition % [%] | Binder
77.3 | B1
88.7 | B2
1.48 | B3
54.1 | B4
74.8 | B5

The binders below were run against T2, Biotinylated LILRB2 (assay: epitope binning ELISA; coated antibody 1 ug/ml, biotinylated LILRB2; competitor LK-RB2-24 at 20 ug/ml).
Method: as §1

Inhibition % [%] | Binder
96.8 | B6
94.3 | B7
32.2 | B8
22.4 | B9

What follows are binders tested against T3, human LILRB1 (human, UniProt Q8NHL6 24-458, limits assumed) (assay: Octet off-rate ranking;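 note: antibody dissociation rate constants against cynomolgus LILRB2 plus human LILRB1, LILRB2, LILRA1 and LILRA2, measured on an Octet instrument to rank binding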).
T3 construct: also called hLILRB1
T3 sequence (Q8NHL6 24-458 limits assumed): as the sequence (Q8NHL6 24-458 limits assumed) above
From the text: Binding affinity of anti-LILRB1 and anti-LILRB2 antibodies against human LILRB1, LILRB2, LILRA1, LILRA2 and cynomolgus LILRB2 was ranked by measuring dissociation rate constant (Kdis) using the Octet system.

koff [s⁻¹] | Binder
0.00126 | B1
0.000155 | B2
5.92e-05 | B3
6.77e-05 | B4
0.000828 | B5

Each binder was assayed against T1, Biotinylated LILRB1 (assay: epitope binning ELISA, coated 1 ug/ml; competitor LK-RB1-16 at 20 ug/ml).
Method: as §1

Inhibition % [%] | Binder
88 | B1
3.49 | B2
42.9 | B3
75.7 | B4
1.24 | B5

The binders below were run against T4, Rhesus LILRB1 (F7H3G7) on CHOK1 cells (rhesus macaque) (assay: flow cytometry on CHOK1-rhesus LILRB1 (F7H3G7) cells).
T4 construct: whole, on cells; also called CHOK1-Rhesus LILRB1 (F7H3G7)

EC50 [µM] | Binder
17.9 | B10
24.2 | B11
0.00125 | B12

Each binder was assayed against T1, Biotinylated LILRB1 (assay: epitope binning ELISA, coated 1 ug/ml; competitor 15G8 at 20 ug/ml).
Method: as §1

Inhibition % [%] | Binder
-9.78 | B1
72.2 | B2
0.37 | B3
-1.73 | B4
5.8 | B5

What follows are binders tested against T1, Biotinylated LILRB1 (assay: epitope binning ELISA, coated 1 ug/ml; competitor LK-RB1-12 at 20 ug/ml).
Method: as §1

Inhibition % [%] | Binder
90.3 | B1
68.8 | B2
12.5 | B3
87.4 | B4
82.1 | B5
